Measurements taken from US20130095071A1, “METHOD OF TREATING OR PREVENTING HEARING LOSS” (Audigen Inc., priority 2009, published 2013).

Assays:
cochlear hair cells = assay: Enzyme facilitated cochlear gene transfection with AAV through round window membrane; assay type: in vivo, guinea pig; details: after digestion of RWM
Description: (§1) The reaction time was 10 minutes.
For inner ear gene transfection, a piece of gelfoam (1-2 mm^3) was placed gently on RWM. 5 ul AAV solution was applied to the gelfoam. The cochlea was taken out for cochlea immunostaining against GFP 2-4 weeks after the surgical application of AAV vectors.
The transfection is through intact round window membrane (RWM). Under appropriate anesthesia, a cut of 2 cm is made posterior to the earlap and the soft tissue is distracted to expose the mastoid. The round window of the guinea pig is exposed by drilling a small hole of 2-3 mm in diameter on the mastoid. Solution of collagenase II is freshly prepared at concentration of 150 units/ml. With the help of a microinjection pump, a total of 10 μl enzyme solution is applied to the round window niche at a flow rate of 10 nl/sec. After reaction time of 10 minutes, residual enzyme solution is sucked out first using suction pump and then use gelfoam. […] Hearing status is evaluated using audiotory brainstem response (ABR).
The transfection is evaluated 2 weeks after the surgery. […] GFP positive hair cells are counted along the length of the cochlear duct. […]
A post-auricular approach was used to expose the tympanic bony bulla. […] The duration for the digestive treatment varied from 5 to 10 minutes and the quantity of the digestive solution 5 to 10 μl. […]

[1] = Safety of enzyme digestion of RWM: ABR before and after surgery; assay type: in vivo, guinea pig; details: 12 ears, 2-4 weeks after surgery
Description: as §1
ABR was tested in animals underwent gene transfection before and just before the animal was killed for morphology.
The transfection is through intact round window membrane (RWM). Under appropriate anesthesia, a cut of 2 cm is made posterior to the earlap and the soft tissue is distracted to expose the mastoid. The round window of the guinea pig is exposed by drilling a small hole of 2-3 mm in diameter on the mastoid. Solution of collagenase II is freshly prepared at concentration of 150 units/ml. With the help of a microinjection pump, a total of 10 μl enzyme solution is applied to the round window niche at a flow rate of 10 nl/sec. After reaction time of 10 minutes, residual enzyme solution is sucked out first using suction pump and then use gelfoam. A piece of gelfoam (2-3 mm^3) is placed upon RWM and then 5 μl AAV-GFP is applied to the gelfoam. The hole of mastoid is covered by suturing the soft tissue. Hearing status is evaluated using audiotory brainstem response (ABR).

[2] = SEM/TEM examination of round window membrane after enzyme digestion
Description: Under appropriate anesthesia, the round window of the guinea pig was surgically exposed and inspected visually under a surgical microscope. Freshly prepared collagenase solution of 2-3 ul was applied to the round window niche with the help of a microinjection pump. The reaction time was 10 minutes. The residual solution was then sucked out and the RWM was washed with saline. The collagenase was used at a concentration of between 50 unit/ml to 200 unit/ml. In one example, the concentration used was 150 unit/ml. In the example provided here, the collagenase was collagenase from Clostridium histolyticum, Type II (available from Sigma).
To evaluate the damage of the digesting solution on RWW, the animal was killed immediately after the digestion and the cochleae were taken out and fixed with standard protocol for electronic microscopy. To evaluate if the damaged RWM heals spontaneously, some other animals were allowed to survive for 3 weeks before the RWMs were taken for examination.
Under deep anesthesia with an overdose of pentobarbital (100 mg/kg), the animal was decapitated and the temporal bone was rapidly removed and the cochlea extracted. To examine the RWM, the cochlea was immersed into a fixative of 2.5% glutaraldehyde overnight at 4° C., and post fixed in 2% OsO4 for 2 hours. […]

## collagenase
Cochlear hair cells
  permeability of RWM to AAV: makes RWM permeable to AAV
[1]; 32, 48 kHz
  ABR threshold shift: less than 15 dB
[1]; other frequencies tested
  hearing loss: no hearing loss
[2]; 3 weeks after the treatment
  damage to RWM (SEM, TEM): no difference from normal control
[2]; immediately after the treatment
  damage to RWM (SEM, TEM): causes damage to the epithelia facing middle ear
